{
  "source": "IntAct's records for PubMed 22072710",
  "parents": {"B1": {"name": "Bone marrow stromal antigen 2 (Homo sapiens), Q10589 (parent)", "chain": "MASTSYDYCRVPMEDGDKRCKLLLGIGILVLLIIVILGVPLIIFTIKANSEACRDGLRAVMECRNVTHLLQQELTEAQKGFQDVEAQAATCNHTVMALMASLDAEKAQGQKKVEELEGEITTLNHKLQDASAEVERLRRENQVLSVRIADKKYYPSSQDSSSAAAPQLLIVLLGLSALLQ", "partner": "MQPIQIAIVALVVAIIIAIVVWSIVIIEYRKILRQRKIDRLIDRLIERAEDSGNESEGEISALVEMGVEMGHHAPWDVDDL"}, "B2": {"name": "Protein Vpu (Human immunodeficiency virus type 1 group M subtype B (isolate BH10) (HIV-1)), P69699 (parent)", "chain": "B1 partner"}},
  "data": [
    {"variants_of": "B1", "settings": "with vpu_hv1b1 vpu, P69699", "values": [
      {"variant": "MASTSYDYCRVPMEDGDKRCKLLLGIGILVLLIIVILGVPAIIFTIKANSEACRDGLRAVMECRNVTHLLQQELTEAQKGFQDVEAQAATCNHTVMALMASLDAEKAQGQKKVEELEGEITTLNHKLQDASAEVERLRRENQVLSVRIADKKYYPSSQDSSSAAAPQLLIVLLGLSALLQ", "note": "[L41A]", "effect of a mutation on the interaction": "disrupting interaction"},
      {"variant": "MASTSYDYCRVPMEDGDKRCKLLLGIGILVLLIAVILGVPLIIFTIKANSEACRDGLRAVMECRNVTHLLQQELTEAQKGFQDVEAQAATCNHTVMALMASLDAEKAQGQKKVEELEGEITTLNHKLQDASAEVERLRRENQVLSVRIADKKYYPSSQDSSSAAAPQLLIVLLGLSALLQ", "note": "[I34A]", "effect of a mutation on the interaction": "disrupting interaction"},
      {"variant": "MASTSYDYCRVPMEDGDKRCKLLLGAGILVLLIIVILGVPLIIFTIKANSEACRDGLRAVMECRNVTHLLQQELTEAQKGFQDVEAQAATCNHTVMALMASLDAEKAQGQKKVEELEGEITTLNHKLQDASAEVERLRRENQVLSVRIADKKYYPSSQDSSSAAAPQLLIVLLGLSALLQ", "note": "[I26A]", "effect of a mutation on the interaction": "decreasing interaction"},
      {"variant": "MASTSYDYCRVPMEDGDKRCKLLLGIGILVLLIIVIAGVPLIIFTIKANSEACRDGLRAVMECRNVTHLLQQELTEAQKGFQDVEAQAATCNHTVMALMASLDAEKAQGQKKVEELEGEITTLNHKLQDASAEVERLRRENQVLSVRIADKKYYPSSQDSSSAAAPQLLIVLLGLSALLQ", "note": "[L37A]", "effect of a mutation on the interaction": "disrupting interaction"},
      {"variant": "MASTSYDYCRVPMEDGDKRCKLLIGIGILVLLIIVILGVPLIIFIIKANSEACRDGLRAVMECRNVTHLLQQELTEAQKGFQDVEAQAATCNHTVMALMASLDAEKAQGQKKVEELEGEITTLNHKLQDASAEVERLRRENQVLSVRIADKKYYPSSQDSSSAAAPQLLIVLLGLSALLQ", "note": "[L24I;T45I]", "effect of a mutation on the interaction": "disrupting interaction strength"}
    ]},
    {"variants_of": "B2", "settings": "with bst2_human BST2, Q10589", "values": [
      {"variant": "W22A", "effect of a mutation on the interaction": "decreasing interaction"},
      {"variant": "A14F", "effect of a mutation on the interaction": "decreasing interaction"},
      {"variant": "A10F;A14F;A18F", "effect of a mutation on the interaction": "decreasing interaction"}
    ]},
    {"variants_of": "B2", "settings": "with bst2_human BST2, Q10589", "remark": "another data set of the same source", "values": [
      {"variant": "A10F;A14F;A18F", "effect of a mutation on the interaction": "disrupting interaction"}
    ]}
  ]
}
